Measured values published in patent US20260242735A1 (UNIVERSIT T BASEL, published 2026).

B1: Refmab #1 (antibody, human IgG1, V domains shown)
VH: EVQLVQSGAEVKKPGSSVKVSCKASGYTITDSNIHWVRQAPGQSLEWIGYIYPYNGGTDYNQKFKNRATLTVDNPTNTAYMELSSLRSEDTAFYYCVNGNPWLAYWGQGTLVTVSS
VL: DIQLTQSPSTLSASVGDRVTITCRASESLDNYGIRFLTWFQQKPGKAPKLLMYAASNQGSGVPSRFSGSGSGTEFTLTISSLQPDDFATYYCQQTKEVPWSFGQGTKVEVK
notes: Full-length MAb format, human IgG1; also called hP67.6
B2: Refmab #1 (antibody, human IgG1, V domains shown)
VH: B1 VH
VL: B1 VL
notes: tested in IgG format; also called hP67.6
B3: Refmab #2 (antibody, human IgG1, V domains shown)
VH: QVQLVQSGAEVKKPGSSVKVSCKASGGTFSDYAISWVRQAPGQGLEWMGRIIPILGVADYAQKFQGRVTITADKSTRTAYMELSSLRSEDTAVYYCARNWADAFDIWGQGTMVTVSS
VL: DIQLTQSPSSLSASVGDRVTITCRASQGISSVLAWYQQKPGKAPKLLIYDASSLESGVPSRFSGSGSGTDFTLTISSLQPEDFATYYCQQFDSSITFGQGTKLEIK
notes: tested in IgG format
B4: Refmab #3 (antibody, human IgG1, V domains shown)
VH: QVQLVQSGAEVKKPGSSVKVSCKASGYTFTDYNMHWVRQAPGQGLEWIGYIYPYNGGTGYNQKFKSKATITADESTNTAYMELSSLRSEDTAVYYCARGRPAMDYWGQGTLVTVSS
VL: DIQMTQSPSSLSASVGDRVTITCRASESVDNYGISFMNWFQQKPGKAPKLLIYAASNQGSGVPSRFSGSGSGTDFTLTISSLQPDDFATYYCQQSKEVPWTFGQGTKVEIK
notes: tested in IgG format
B5: Refmab #4 (antibody, human IgG1, V domains shown)
VH: QVQLVQSGAEVKKPGESVKVSCKASGYTFTNYGMNWVKQAPGQGLEWMGWINTYTGEPTYADKFQGRVTMTTDTSTSTAYMEIRNLGGDDTAVYYCARWSWSDGYYVYFDYWGQGTSVTVSS
VL: DIVMTQSPDSLTVSLGERTTINCKSSQSVLDSSTNKNSLAWYQQKPGQPPKLLLSWASTRESGIPDRFSGSGSGTDFTLTIDSPQPEDSATYYCQQSAHFPITFGQGTRLEIK
notes: Full-length MAb format, human IgG1 Fc silent (PG-LALA)
B6: Refmab #4 (antibody, human IgG1, V domains shown)
VH: B5 VH
VL: B5 VL
notes: tested in IgG format

Tests used:
[1] = target: T1, human wild-type CD33 (human, UniProt P20138 18-364); experiment: flow cytometry, IgG at 0.25 ug/ml on HEK293-T cells expressing CD33 against vector alone
T1 construct: also called SIGLEC3; P67
T1 sequence (P20138 18-364 limits assumed): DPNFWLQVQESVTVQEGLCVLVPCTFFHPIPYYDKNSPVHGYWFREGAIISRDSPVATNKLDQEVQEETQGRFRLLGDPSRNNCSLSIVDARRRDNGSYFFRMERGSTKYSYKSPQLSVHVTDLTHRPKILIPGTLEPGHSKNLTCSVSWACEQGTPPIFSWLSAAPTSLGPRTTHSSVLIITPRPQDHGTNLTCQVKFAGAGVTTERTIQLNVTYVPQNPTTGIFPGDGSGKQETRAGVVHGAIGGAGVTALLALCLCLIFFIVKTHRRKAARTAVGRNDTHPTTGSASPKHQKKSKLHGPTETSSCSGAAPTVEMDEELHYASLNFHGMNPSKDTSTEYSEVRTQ
Protocol: Binding of the antibodies to the transfected cells and the optimal assay conditions were evaluated in 384-well format. Detection of cellular expression was measured via high-throughput flow cytometry. Serial dilutions of each antibody were tested for immunoreactivity against cells expressing CD33 or vector alone. The optimal screening concentration for each antibody was determined based on the raw signal values and signal-to-background calculations. Each point represents the mean of four replicates.

[2] = target: human CD33 S131N (human, UniProt P20138 18-364); experiment: flow cytometry, HEK293-T, IgG;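 further: CD33 point mutants transiently expressed, antibody binding measured by fluorescence in duplicate, background subtracted and scaled to binding on wild-type CD33 as 100%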
Sequence of human CD33 S131N (P20138 18-364 S131N limits assumed): as the sequence (P20138 18-364 limits assumed) above, with S114N counted along it
Protocol: (§1) An alanine scan on human CD33 was performed to the determine the residues on CD33 that are involved in binding to the antibodies investigated. […] Briefly, a mutation library of CD33 was created by high-throughput, site-directed mutagenesis. Each residue was individually mutated to alanine, with alanine codons mutated to serine. The mutant library was arrayed in 384-well microplates and transiently transfected into HEK293-T. Following transfection, cells were incubated with the indicated antibodies (IgG or Fab) at concentrations pre-determined using an independent immunofluorescence titration curve on wild type CD33. […] Binding of each antibody to each mutant clone was determined in duplicates. For each point, background fluorescence was subtracted from the raw data, which were then normalized to antibody reactivity with wild type CD33.
(§2) Antibodies were screened for binding to the human CD33 variants in IgG format. […] For each mutation, background fluorescence was subtracted from the raw data, which were then normalized to antibody reactivity with wild-type CD33.

[3] = target: human CD33 S131H (human, UniProt P20138 18-364); experiment: flow cytometry, HEK293-T, IgG;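 further: CD33 point mutants transiently expressed, antibody binding measured by fluorescence in duplicate, background subtracted and scaled to binding on wild-type CD33 as 100%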
Sequence of human CD33 S131H (P20138 18-364 S131H limits assumed): as the sequence (P20138 18-364 limits assumed) above, with S114H counted along it
Protocol: as §1, §2

[4] = target: human CD33 S131D (human, UniProt P20138 18-364); experiment: flow cytometry, HEK293-T, IgG;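 further: CD33 point mutants transiently expressed, antibody binding measured by fluorescence in duplicate, background subtracted and scaled to binding on wild-type CD33 as 100%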
Sequence of human CD33 S131D (P20138 18-364 S131D limits assumed): as the sequence (P20138 18-364 limits assumed) above, with S114D counted along it
Protocol: as §1, §2

[5] = target: human CD33 S131K (human, UniProt P20138 18-364); experiment: flow cytometry, HEK293-T, IgG;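 further: CD33 point mutants transiently expressed, antibody binding measured by fluorescence in duplicate, background subtracted and scaled to binding on wild-type CD33 as 100%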
Sequence of human CD33 S131K (P20138 18-364 S131K limits assumed): as the sequence (P20138 18-364 limits assumed) above, with S114K counted along it
Protocol: as §1, §2

[6] = target: human CD33 S131I (human, UniProt P20138 18-364); experiment: flow cytometry, HEK293-T, IgG
Sequence of human CD33 S131I (P20138 18-364 S131I limits assumed): as the sequence (P20138 18-364 limits assumed) above, with S114I counted along it
Protocol: as §1, §2

[7] = target: human CD33 S131F (human, UniProt P20138 18-364); experiment: flow cytometry, HEK293-T, IgG
Sequence of human CD33 S131F (P20138 18-364 S131F limits assumed): as the sequence (P20138 18-364 limits assumed) above, with S114F counted along it
Protocol: as §1, §2

[8] = target: human CD33 S131Y (human, UniProt P20138 18-364); experiment: flow cytometry, HEK293-T, IgG
Sequence of human CD33 S131Y (P20138 18-364 S131Y limits assumed): as the sequence (P20138 18-364 limits assumed) above, with S114Y counted along it
Protocol: as §1, §2

[9] = target: human CD33 S131M (human, UniProt P20138 18-364); experiment: flow cytometry, HEK293-T, IgG
Sequence of human CD33 S131M (P20138 18-364 S131M limits assumed): as the sequence (P20138 18-364 limits assumed) above, with S114M counted along it
Protocol: as §1, §2

[10] = target: human CD33 S131W (human, UniProt P20138 18-364); experiment: flow cytometry, HEK293-T, IgG
Sequence of human CD33 S131W (P20138 18-364 S131W limits assumed): as the sequence (P20138 18-364 limits assumed) above, with S114W counted along it
Protocol: as §1, §2

[11] = target: human CD33 S131Q (human, UniProt P20138 18-364); experiment: flow cytometry, HEK293-T, IgG
Sequence of human CD33 S131Q (P20138 18-364 S131Q limits assumed): as the sequence (P20138 18-364 limits assumed) above, with S114Q counted along it
Protocol: as §1, §2

[12] = target: human CD33 P132S (human, UniProt P20138 18-364); experiment: flow cytometry, HEK293-T, IgG
Sequence of human CD33 P132S (P20138 18-364 P132S limits assumed): as the sequence (P20138 18-364 limits assumed) above, with P115S counted along it
Protocol: as §1, §2

[13] = target: human CD33 P132T (human, UniProt P20138 18-364); experiment: flow cytometry, HEK293-T, IgG
Sequence of human CD33 P132T (P20138 18-364 P132T limits assumed): as the sequence (P20138 18-364 limits assumed) above, with P115T counted along it
Protocol: as §1, §2

[14] = target: human CD33 P132V (human, UniProt P20138 18-364); experiment: flow cytometry, HEK293-T, IgG
Sequence of human CD33 P132V (P20138 18-364 P132V limits assumed): as the sequence (P20138 18-364 limits assumed) above, with P115V counted along it
Protocol: as §1, §2

[15] = target: human CD33 P132L (human, UniProt P20138 18-364); experiment: flow cytometry, HEK293-T, IgG
Sequence of human CD33 P132L (P20138 18-364 P132L limits assumed): as the sequence (P20138 18-364 limits assumed) above, with P115L counted along it
Protocol: as §1, §2

[16] = target: human CD33 P132F (human, UniProt P20138 18-364); experiment: flow cytometry, HEK293-T, IgG
Sequence of human CD33 P132F (P20138 18-364 P132F limits assumed): as the sequence (P20138 18-364 limits assumed) above, with P115F counted along it
Protocol: as §1, §2

[17] = target: human CD33 P132Y (human, UniProt P20138 18-364); experiment: flow cytometry, HEK293-T, IgG
Sequence of human CD33 P132Y (P20138 18-364 P132Y limits assumed): as the sequence (P20138 18-364 limits assumed) above, with P115Y counted along it
Protocol: as §1, §2

[18] = target: human CD33 P132H (human, UniProt P20138 18-364); experiment: flow cytometry, HEK293-T, IgG
Sequence of human CD33 P132H (P20138 18-364 P132H limits assumed): as the sequence (P20138 18-364 limits assumed) above, with P115H counted along it
Protocol: as §1, §2

[19] = target: human CD33 P132D (human, UniProt P20138 18-364); experiment: flow cytometry, HEK293-T, IgG
Sequence of human CD33 P132D (P20138 18-364 P132D limits assumed): as the sequence (P20138 18-364 limits assumed) above, with P115D counted along it
Protocol: as §1, §2

[20] = target: human CD33 P132K (human, UniProt P20138 18-364); experiment: flow cytometry, HEK293-T, IgG
Sequence of human CD33 P132K (P20138 18-364 P132K limits assumed): as the sequence (P20138 18-364 limits assumed) above, with P115K counted along it
Protocol: as §1, §2

[21] = target: human CD33 P132N (human, UniProt P20138 18-364); experiment: flow cytometry, HEK293-T, IgG
Sequence of human CD33 P132N (P20138 18-364 P132N limits assumed): as the sequence (P20138 18-364 limits assumed) above, with P115N counted along it
Protocol: as §1, §2

[22] = target: human CD33 P132Q (human, UniProt P20138 18-364); experiment: flow cytometry, HEK293-T, IgG
Sequence of human CD33 P132Q (P20138 18-364 P132Q limits assumed): as the sequence (P20138 18-364 limits assumed) above, with P115Q counted along it
Protocol: as §1, §2

[23] = target: human CD33 L134T (human, UniProt P20138 18-364); experiment: flow cytometry, HEK293-T, IgG
Sequence of human CD33 L134T (P20138 18-364 L134T limits assumed): as the sequence (P20138 18-364 limits assumed) above, with L117T counted along it
Protocol: as §1, §2

[24] = target: human CD33 L134I (human, UniProt P20138 18-364); experiment: flow cytometry, HEK293-T, IgG
Sequence of human CD33 L134I (P20138 18-364 L134I limits assumed): as the sequence (P20138 18-364 limits assumed) above, with L117I counted along it
Protocol: as §1, §2

[25] = target: human CD33 L134Q (human, UniProt P20138 18-364); experiment: flow cytometry, HEK293-T, IgG
Sequence of human CD33 L134Q (P20138 18-364 L134Q limits assumed): as the sequence (P20138 18-364 limits assumed) above, with L117Q counted along it
Protocol: as §1, §2

[26] = target: human CD33 L134R (human, UniProt P20138 18-364); experiment: flow cytometry, HEK293-T, IgG
Sequence of human CD33 L134R (P20138 18-364 L134R limits assumed): as the sequence (P20138 18-364 limits assumed) above, with L117R counted along it
Protocol: as §1, §2

[27] = target: human CD33 L134F (human, UniProt P20138 18-364); experiment: flow cytometry, HEK293-T, IgG
Sequence of human CD33 L134F (P20138 18-364 L134F limits assumed): as the sequence (P20138 18-364 limits assumed) above, with L117F counted along it
Protocol: as §1, §2

[28] = target: human CD33 L134M (human, UniProt P20138 18-364); experiment: flow cytometry, HEK293-T, IgG
Sequence of human CD33 L134M (P20138 18-364 L134M limits assumed): as the sequence (P20138 18-364 limits assumed) above, with L117M counted along it
Protocol: as §1, §2

[29] = target: human CD33 S131T (human, UniProt P20138 18-364); experiment: flow cytometry, HEK293-T, IgG
Sequence of human CD33 S131T (P20138 18-364 S131T limits assumed): as the sequence (P20138 18-364 limits assumed) above, with S114T counted along it
Protocol: as §1, §2

| Binder | Mean % WT Binding [2] [% WT binding] | Mean % WT Binding [3] [% WT binding] | Mean % WT Binding [4] [% WT binding] | Mean % WT Binding [5] [% WT binding] | Mean % WT Binding [6] [% WT binding] | Mean % WT Binding [7] [% WT binding] | Mean % WT Binding [8] [% WT binding] | Mean % WT Binding [9] [% WT binding] | Mean % WT Binding [10] [% WT binding] | Mean % WT Binding [11] [% WT binding] | Mean % WT Binding [12] [% WT binding] | Mean % WT Binding [13] [% WT binding] | Mean % WT Binding [14] [% WT binding] | Mean % WT Binding [15] [% WT binding] | Mean % WT Binding [16] [% WT binding] | Mean % WT Binding [17] [% WT binding] | Mean % WT Binding [18] [% WT binding] | Mean % WT Binding [19] [% WT binding] | Mean % WT Binding [20] [% WT binding] | Mean % WT Binding [21] [% WT binding] | other results |
| --- | --- | --- | --- | --- | --- | --- | --- | --- | --- | --- | --- | --- | --- | --- | --- | --- | --- | --- | --- | --- | --- |
| B1 |  |  |  |  |  |  |  |  |  |  |  |  |  |  |  |  |  |  |  |  | Signal:Background [1]: 44 signal:background ratio |
| B2 | 94.6 | 96.4 | 91.9 | 102 | 96.6 | 95.6 | 97.7 | 105 | 97.6 | 101 | 92.9 | 98.9 | 105 | 94.6 | 91.3 | 93.5 | 84.9 | 89.9 | 99.6 | 91.4 | Mean % WT Binding [22]: 91.7 % WT binding; Mean % WT Binding [23]: 91.6 % WT binding; Mean % WT Binding [24]: 106 % WT binding; Mean % WT Binding [25]: 83 % WT binding; Mean % WT Binding [26]: 3.1 % WT binding; Mean % WT Binding [27]: 92.5 % WT binding; Mean % WT Binding [28]: 81.2 % WT binding; Mean % WT Binding [29]: 97.2 % WT binding |
| B3 | 126 | 112 | 101 | 91.2 | 110 | 111 | 98.5 | 108 | 92.4 | 110 | 110 | 103 | 102 | 116 | 65.1 | 65 | 101 | 73.6 | 119 | 100 | Mean % WT Binding [22]: 83.4 % WT binding; Mean % WT Binding [23]: 99.2 % WT binding; Mean % WT Binding [24]: 105 % WT binding; Mean % WT Binding [25]: 77.4 % WT binding; Mean % WT Binding [26]: 2.5 % WT binding; Mean % WT Binding [27]: 106 % WT binding; Mean % WT Binding [28]: 105 % WT binding; Mean % WT Binding [29]: 111 % WT binding |
| B4 | 118 | 100 | 93.9 | 87.7 | 95.7 | 103 | 97.4 | 91.9 | 91.9 | 93.9 | 95.8 | 106 | 86.6 | 94.4 | 79.4 | 85.2 | 87.8 | 92.7 | 65 | 94.5 | Mean % WT Binding [22]: 80.1 % WT binding; Mean % WT Binding [23]: 101 % WT binding; Mean % WT Binding [24]: 108 % WT binding; Mean % WT Binding [25]: 87.7 % WT binding; Mean % WT Binding [26]: 1 % WT binding; Mean % WT Binding [27]: 104 % WT binding; Mean % WT Binding [28]: 106 % WT binding; Mean % WT Binding [29]: 116 % WT binding |
| B5 |  |  |  |  |  |  |  |  |  |  |  |  |  |  |  |  |  |  |  |  | Signal:Background [1]: 38 signal:background ratio |
| B6 | 105 | 103 | 97.5 | 100 | 99.6 | 91.8 | 85.7 | 97.6 | 87.5 | 97.3 | 102 | 99.8 | 94.7 | 96.7 | 71.3 | 78.6 | 92.7 | 99.6 | 102 | 100 | Mean % WT Binding [22]: 86.9 % WT binding; Mean % WT Binding [23]: 90.3 % WT binding; Mean % WT Binding [24]: 94.4 % WT binding; Mean % WT Binding [25]: 86.8 % WT binding; Mean % WT Binding [26]: 2.4 % WT binding; Mean % WT Binding [27]: 90.6 % WT binding; Mean % WT Binding [28]: 99 % WT binding; Mean % WT Binding [29]: 102 % WT binding |
